According to the DeepSol protein solubility set:

Assay: soluble on expression in E. coli; label from the status in PepcDB or PDB records

Sequence	soluble on expression in E. coli
MEGLLIDYVQPGSIAEELEIEAGDRLVAINGQDLRDIIDFSFYAHDEELALEIVKPSGDHWEAEIERDGDEPLGLVFAPPVPAQCGNKCVFCFVHQLPKGLRRPLYVKDEDYRLSFLYGNYVTLSNIRRGDLDRIVAQRLSPLYISVHATNPALRERLLGRSEILPILDLMRELAAARIVMHSQIVLCPGLNDGVELEKTVRDLAGLHPWVESLAIVPIGLTKHRRGLPALEPVTASYAETFVQNWQPAAERLERELGAPFLFIADEFYIKAGLPFPPLETYGDLPQIENGVGMIPLFLDESERVLKKARKGKPVTVTVVTGESPYRYLAAFLERLSVRTGATFKPVAVHNRLFGESVTVTGLVAGSDIVEELSGRDLGDAVLVPDVMLKEGEGIFLDDLSVDGLGKSLGTRVLVVEATPQGVVDALRRVRSMLEHHHHHH	not soluble
MGSDKIHHHHHHVYQDLSRFSMPADFRGKPGWYVQLWWVVQALLFHPSPQIMYGWRRLLLRAFGAQIGKGVIIRPSAQITYPWKLAIGDYAWIGDEVVLYTLGNITIGKNAVVSQRSYICTGSHDFKKEAFDIFSKPIIIDDECWLATDVFVGPGVKISKGIVIGARSSVYKNIEATPGIYTGNPATRVGDR	not soluble
MGSDKIHHHHHHMEYVIEMNNITKVFPGIVANDDITLQVKQGEIHALLGENGAGKSTLMNVLFGLYQPEQGEIKIKGKPVKITNPNIANDLGIGMVHQHFMLVHNFTVTENIILGNEPKKNGKIAVEEAAKEIKQLSEQYGLAVDPHAKIEDISVGMQQRVEILKTLYRGAEILIFDEPTAVLTPQEIHELIQIMKKLVQEGKSIILITHKLKEIMEVCDRCTIIRKGKGIGTVDVAETDEHKLAELMVGRQVNFKTEKIEAKPMEEVLSIANLIVHDTRKLPAVKGLDLTVRAGEIVGIAGIDGNGQSELIEAITGLRKVESGSIAIKGKEITNWPVRRITEEGIGHIPEDRHKHGLVLDFSVRDNIVLQTYYKNPFSKKGILNFSKITEKAKALIEQFDVRTPSEQTLARALSGGNQQKAIIAREVDRNPDLLIAAQPTRGLDVGAIEFIHKKLIEQRDNGKAVLLLSLELDEILNVSDRVAVIYEGKIVAIVDAKETNEQQLGLLMAGGTGKEKVNTNG	not soluble
MGHHHHHHSHMDWTLAMAQESGVWSEAGQLALHSYLEGLHTLASCAPAPSLSAPRLKSCIQCVESQLLVVIMSVCMLVCQLRNVCVCVHAHACMYLFPVPSGSGCHFRLSALSPATSVPQPEREMRCSWTPHCIWAAGPELV	not soluble
GLGEKKEGHFSALPSLPVGSHAKVSSPQPRGPRYAEGTFISDYSIAMDKIHQQDFVNWLLAQKGKKNDWKHNITQREARALELASQANRKEEEAVEPQSSPAKNPSDEDLLRDLLIQELLACLLDQTNLCRLRSR	soluble
KQWVWSAESPIETNILKLLPKNQQNPVAEQAFESVSASMSDKVIFVITAPDKNALFAAAAEFDKGLRQSNHFRDVVGKISPQEQQAWASYYFKHRFQLLTPEQRERLSQNPEQQVQHVIQSLYNPFSGVTGQELQSDPFLLFRDYLSQVTQQSSSFRLDNGYLSVEKDGAQYLLITAELKESPYSLTGQLAVPDIQALEQSVAQKYGAEVAHTGVLFYADFGTQSAKSE	soluble
AEKTNYAVTYKSDSVPSISMAVNTEQSSHYISQFIAVQGLEDHSAKSIFIQDMLQRIVSKRLMHYVREELSLDYAPYALMVNADSEFKPHWVMGAQVDPKNAELIESAIDKVIKDLLRGVTENEVNAAAKQLVVDLEPLKNNSTQQAWLLNRYTIHNYGIEALFGISETANSVNAEDINRLIKYSFGKNSHQFKYLSTPI	not soluble
MAHHHHHHMFHGFPDVQIAPRDTVISEEFHLHDKEGRMGTLLQPMAQRMRISFSALTCLGSYAQNATCHYALFGRLCGVQLNETIEVTNVLPPVINPRPPEDETPEQREKRLLAQQREERQMYERMGKMFFKEELDSYHVGYFAICSAYTNAPYSVRTVQQLAQLALDGNPSVLVVYDPFRTSLMGKLYLRAFVPTREYVEFYTRLTDKRNILRENRLMRECNVGKGGVLREVKVEVDVDEYQLLCLSGFNVAPLSSTCRTLHSEVMTDYMAALIESVRHNADELSRGLHSESYFSQKEESYGPLGQRIDTLLKLMQLREQTQHLESLCDGVLLNTSLLRDL	soluble
MGSDKIHHHHHHMTDLIYNDPDFVQFYDIENQDGRADFDYCVRLARDGGSVLDLGCGTGQLAAEMAQGCNVTGVDPASAMLDVARRRTGGDKVDWVVADARTVRLGRRFDLVLLTGHVFQVFLTDEDQRAVLRTIAEHLGPGGRFIFDTRNPAVEAWLEWTPQRSERMVEHPSLGTVRAWYDADWDAASAVVTYSTFYEIPGGRPILGAESKIAFPKKQDLAGMLDDAGLLVEQWLGDWQGEPYADTSPEIIPIGRLR	not soluble
SAENERMYISYNNIHKLCQGVAKHILARNERPDIIIAITGGGMIPARIIRSFLKTKGQKNIPIQAIGLSLYEDLGLDNSVETIGKEVIRTQWLDFGALNQHFDSLIGKKVLIVDEVDDTRTTLHYAVSELEKEIAEQQKVLNRMSEETVISIFVLHNKDKPKRAGLPDSMMNSGRYIAAQTVPDKWLCYPWDAEDIEEHTMLAKAQGHD	soluble
MGSDKIHHHHHHMTTATHPNDALFAGEKSFPVLAACEHFAGSEKLIGKAMDLQVEYGPVFDVTCDCEDGAAAGQEREHAEMVARMIASDRNVHGRAGARIHDPSHPAWRQDVDIIVNGAGGRLAYITVPKATNSGQVAEVIRYIGDVAKRAGLDKPVPVHVLIETHGALRDVFQIAELPNIEVLDFGLMDFVSGHHGAIPAAAMRSPGQFEHALLVRAKADMVAAALANGIVPAHNVCLNLKDAEVIASDACRARNEFGFLRMWSIYPAQIQPIVNAMRPDFTEVEDAAGILVAAQDADWGPIQYKGELHDRATYRYFWEVLQKAKVTGMAVPAEAERRFFVN	not soluble
EIFSQELTQREANVKKVHENLEELQKKLDHTSFAHKEDRDRLEAQIAQKEQEQKAKLAEYDQKVQNEFDARERAEREREAARGDAAAEKQRLASLLKDLEDDASGYNRLRPSKPMLSEEDTNILRQLFLSSAVSGSGKFSFQDLKQVLAKYADTIPEGPLKKLFVMVENDTKGRMSYITLVAVANDLAALVADFRKIDTNSNGTLSRKEFREHFVRLGFDKKSVQDALFRYADEDESDDVGFSEYVHLGLCLLVLRILYAFADFDKSGQLSKEEVQKVLEDAHIPESARKKFEHQFSVVDVDDSKSLSYQEFVMLVLLMFHDD	soluble
MGSDKIHHHHHHMPSVKIGIIGAGSAVFSLRLVSDLCKTPGLSGSTVTLMDIDEERLDAILTIAKKYVEEVGADLKFEKTMNLDDVIIDADFVINTAMVGGHTYLEKVRQIGEKYGYYRGIDAQEFNMVSDYYTFSNYNQLKYFVDIARKIEKLSPKAWYLQAANPIFEGTTLVTRTVPIKAVGFCHGHYGVMEIVEKLGLEEEKVDWQVAGVNHGIWLNRFRYNGGNAYPLLDKWIEEKSKDWKPENPFNDQLSPAAIDMYRFYGVMPIGDTVRNSSWRYHRDLETKKKWYGEPWGGADSEIGWKWYQDTLGKVTEITKKVAKFIKENPSVRLSDLGSVLGKDLSEKQFVLEVEKILDPERKSGEQHIPFIDALLNDNKARFVVNIPNKGIIHGIDDDVVVEVPALVDKNGIHPEKIEPPLPDRVVKYYLRPRIMRMEMALEAFLTGDIRIIKELLYRDPRTKSDEQVEKVIEEILALPENEEMRKHYLKR	not soluble
MHSLDSYFQRTTAPKSAAQERREEFHEKVMRSADYIADKFVETVRPLVDEVADKLQSEMPEDMEGTAKRRLICELSRRFGVSISAFK	not soluble
MAGPSWRHIRAEGLDCSYTVLFGKAEADEIFQELEKEVEYFTGALARVQVFGKWHSVPRKQATYGDAGLTYTFSGLTLSPKPWIPVLERIRDHVSGVTGQTFNFVLINRYKDGCDHIGEHRDDERELAPGSPIASVSFGACRDFVFRHKDSRGKSPSRRVAVVRLPLAHGSLLMMNHPTNTHWYHSLPVRKKVLAPRVNLTFRKILLTKKLEHHHHHH	soluble
GPGSMAGVLHETATTVSYRGALCKLAGVELQGINLSPPQRLCQLELLISREINWLAAVLEEWEEKYMLFTCVPYRGVVDAFTTLLRTIKRHLETENSSKDNEKEWDALLASSITEFQVEVMEIGKGKSY	soluble
MGSDKIHHHHHHMLLDHIFICVDENAPEADELVFLGLAEGTPNRHRGQGTANRRFFLPGVMLELLWVADLNELQSVTTRTLGLADRFAARKDGGSPFGFVFKPKNPRIGNSCPFPFRSYHPAYLPETLDMKVADATPRIEPLYVFIDFLPASCSTAQHHPCGIERLTSVHVTFPAQGAPSPVARMIDSLPGMSARVGREHLLELCFDDGKRGVRHDFRNRLPLIIRW	not soluble
MGSDKIHHHHHHMHFVITGSLGHIGKPLAIQLSKEGHAVTVVSSNTERIKEIESIGAKAAIGSVEDPGFLTETFRGADAVFTMVPPNMNAADWKAWIAGIGKNYVAAIKESGVKHVVNLSSIGAHMVDKCGPVSGLSQVELAMDEMKGVNVHHLRAGYFYTNFLNSIGQIKNQGIITGNYMPDLKMVLVHPADIADIAARALKDESYLGRGFSYIASDEKTPAEIVTILGKATGRMDLKWVERTDKEEYDDLIAIGLPEEIAKNYTEMGAALRSGDMNADYFRNRPVMAGWRTFDSFMPEFIATYNA	not soluble
MSELRILRAVDYPRMPWKNGAGSTEEIARDGGDGLDGFGWRLSIADVGESGGFSGFAGYQRIISVLEGGGMRLRVDGAESAPLRARQAFAFSGDSEVHCTLLDGAIRDFNLIYAPRRHRARLQWLRVEGELDWHGTASTLLLFAQQDGVAISLQGQPRGQLAAHDCLCAEGLQGLQHWRLTAHEPAWVCAVELDSL	soluble
MKKWFPALLFSLCVSGESSAWNNIVFYSLGDVNSYQGGNVVITQRPQFITSWRPGIATVTWNQCNGPEFADGFWAYYREYIAWVVFPKKVMTQNGYPLFIEVHNKGSWSEENTGDNDSYFFLKGYKWDERAFDAGNLCQKPGEITRLTEKFDDIIFKVALPADLPLGDYSVKIPYTSGMQRHFASYLGARFKIPYNVAKTLPRENEMLFLFKNIGGCRPSAQSLEIKHGDLSINSANNHYAAQTLSVSCDVPANIRFMLLRNTTPTYSHGKKFSVGLGHGWDSIVSVNGVDTGETTMRWYKAGTQNLTIGSRLYGESSKIQPGVLSGSATLLMILP	soluble
MKVYVGNLGTGAGKGELERAFSYYGPLRTVWIARNPPGFAFVEFEDPRDAEDAVRGLDGKVICGSRVRVELSTGMPRRSRFDRPPARRKLLEVLFNGPLEH	soluble
MGSDKIHHHHHHMFKNVSWKLKEHSELKKYGIDHNILLDVVSRERRKIYFDYWKNLPKLVTSSLGLKFTDGTPVDALYEVFIEGIYDVDGFRPKMGDVVVDVGANYGDSSIWWAKKKFGAKVIAFEPLADVFHELEKNIRINHADVIAYNVALGNGNFINGSKQGNMFVAGGQAKIQTSRLDDYTFDRLDLLKIDVEGFEHDVLLGARSTISKFKPKIIIETHSVALRKLCHEFLISLGYSLSLEGRTIRAHSPGMDKVTNLFYSPII	not soluble
MGSSHHHHHHSSGLVPRGSHMKVYYECAPCFLRQAREAIDLATDDEELKLRVMENILELLSERFRRGQVSNELGTRMHRLIKDMTGSEDPYLDEKRRCNEIALRFLPTVRDYLECHSDLESHVKVAITGNIIDFGALGLDFDHDRGIQESLRAPLTINHVPLLEDRLREASEVLYLLDNTGEILFDRPLIEKLAGYDVSVKVAVKGEPILNDACMEDALEAGLDEVAEIVTTGTDSVGIVYSDLSDEFRDMLDGTELVIAKGMGNYEGLTEISDGSRDIFCLLNAKCSAIARDLGVARGDNVAVKI	soluble
